Among the data in publication PMC9482650, “Quantitative fragmentomics allow affinity mapping of interactomes” (Nature Communications, 2022) are pKd values, retold here.

By pKd is commonly meant the Kd on a negative log10 scale, so that one unit is a factor of ten.

Targets include MAGI1_3, Q96QZ7; DLG2_1, Q15700; SDCBP_1, O00560; DLG5_2, Q8TDM6; RGS3, P49796-9; MAGI1_5, Q96QZ7.
Holding throughout (experiment): holdup assay
What all share (design): key: below the threshold = too weak to quantify, mostly under pKd 3.1 to 4

Another test has as its target T1, PDZD4, Q76G19.
T1 sequence (Q76G19 125-224, limits assumed, looked up): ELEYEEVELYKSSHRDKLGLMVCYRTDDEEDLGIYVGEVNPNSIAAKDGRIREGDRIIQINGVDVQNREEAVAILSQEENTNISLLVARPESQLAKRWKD

A further test addresses T2, RGS12, O14924.
T2 sequence (O14924 17-108, limits assumed, looked up): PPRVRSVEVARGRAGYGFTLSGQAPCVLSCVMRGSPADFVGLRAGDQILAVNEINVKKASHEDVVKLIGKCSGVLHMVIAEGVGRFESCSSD
To be noted: plain residues with an end cap or a label only (N-terminal biotin on a linker: (peg)3).

For a further test, the target named is T3, PDZD7_1, Q9H5P4.
T3 sequence (Q9H5P4 81-178, limits assumed, looked up): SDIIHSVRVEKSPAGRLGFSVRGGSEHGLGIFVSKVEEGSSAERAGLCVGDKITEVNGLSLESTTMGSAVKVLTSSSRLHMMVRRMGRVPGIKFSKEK

The next test concerns the target T4, DVL1, O14640.
T4 sequence (O14640 246-333, limits assumed, looked up): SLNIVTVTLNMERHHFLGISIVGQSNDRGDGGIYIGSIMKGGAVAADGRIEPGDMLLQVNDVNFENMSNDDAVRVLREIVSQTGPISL
The settings on record: plain residues with an end cap or a label only (N-terminal biotin on a linker: (peg)3).

A further test concerns the target T5, TJP3_1, O95049.
T5 sequence (O95049 6-103, limits assumed, looked up): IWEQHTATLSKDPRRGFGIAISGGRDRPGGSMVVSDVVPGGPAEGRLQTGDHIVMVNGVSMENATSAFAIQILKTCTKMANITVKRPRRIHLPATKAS

The next test addresses T6, PTPN13_5, Q12923.
T6 sequence (Q12923 1877-1975, limits assumed, looked up): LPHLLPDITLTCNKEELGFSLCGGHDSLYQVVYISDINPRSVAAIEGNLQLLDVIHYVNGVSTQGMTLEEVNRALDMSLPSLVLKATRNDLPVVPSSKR

A further test addresses T7, PDZD8, Q8NEN9.
T7 sequence (Q8NEN9 361-459, limits assumed, looked up): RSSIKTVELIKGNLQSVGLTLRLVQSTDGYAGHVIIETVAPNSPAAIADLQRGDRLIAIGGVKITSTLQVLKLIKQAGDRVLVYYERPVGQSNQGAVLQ

The target of another test is T8, LNX2_1, Q8N448.
T8 sequence (Q8N448 228-328, limits assumed, looked up): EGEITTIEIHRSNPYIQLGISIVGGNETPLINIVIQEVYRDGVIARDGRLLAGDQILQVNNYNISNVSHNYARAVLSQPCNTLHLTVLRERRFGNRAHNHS

The next test addresses T9, MPP1, Q00013.
T9 sequence (Q00013 66-162, limits assumed, looked up): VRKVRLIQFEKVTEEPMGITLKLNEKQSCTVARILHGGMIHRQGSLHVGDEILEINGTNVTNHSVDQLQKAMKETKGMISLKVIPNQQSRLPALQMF

The next test addresses T10, NHERF3_2, Q5T2W1.
T10 sequence (Q5T2W1 129-225, limits assumed, looked up): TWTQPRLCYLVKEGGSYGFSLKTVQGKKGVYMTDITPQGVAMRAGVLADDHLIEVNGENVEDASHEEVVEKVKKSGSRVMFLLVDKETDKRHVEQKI

The target in another test is T11, PARD6G, Q9BYG4.
T11 sequence (Q9BYG4 153-261, limits assumed, looked up): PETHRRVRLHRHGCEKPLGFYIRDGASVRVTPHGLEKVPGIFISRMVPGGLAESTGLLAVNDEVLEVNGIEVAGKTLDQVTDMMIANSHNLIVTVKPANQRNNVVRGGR
To be noted: plain residues with an end cap or a label only (N-terminal biotin on a linker: (peg)3).

In another test the target is T12, USH1C_1, Q9Y6N9.
T12 sequence (Q9Y6N9 82-179, limits assumed, looked up): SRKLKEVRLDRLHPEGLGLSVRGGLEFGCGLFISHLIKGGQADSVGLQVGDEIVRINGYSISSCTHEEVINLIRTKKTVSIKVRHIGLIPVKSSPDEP

The next test has as its target T13, PDZD7_2, Q9H5P4.
T13 sequence (Q9H5P4 205-303, limits assumed, looked up): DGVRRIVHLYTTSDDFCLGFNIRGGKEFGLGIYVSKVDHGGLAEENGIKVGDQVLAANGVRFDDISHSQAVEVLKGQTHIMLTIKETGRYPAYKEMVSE
To be noted: plain residues with an end cap or a label only (N-terminal biotin on a linker: (peg)3).

For a further test, the target named is T14, MPDZ_7, O75970.
T14 sequence (O75970 1146-1253, limits assumed, looked up): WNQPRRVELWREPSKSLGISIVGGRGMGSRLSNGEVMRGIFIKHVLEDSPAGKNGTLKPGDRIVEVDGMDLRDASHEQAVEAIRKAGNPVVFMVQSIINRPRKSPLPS

Another test has as its target PDZD9, Q8IXQ8. To be noted: plain residues with an end cap or a label only (N-terminal biotin on a linker: (peg)3).
A further test concerns the target T15, GRIP1_1, Q9Y3R0.
T15 sequence (Q9Y3R0 48-146, limits assumed, looked up): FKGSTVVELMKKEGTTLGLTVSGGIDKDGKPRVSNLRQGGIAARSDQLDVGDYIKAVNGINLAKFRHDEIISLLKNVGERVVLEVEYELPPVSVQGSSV

[1] abbreviates: plain residues with an end cap or a label only (N-terminal biotin on a linker: (peg)3).
Setting [2] is: modified: phospho on T at position -2 from the C-terminal residue.

Chain of RGS3, P49796-9 (P49796 other isoform, or with tags, fused parts or gaps): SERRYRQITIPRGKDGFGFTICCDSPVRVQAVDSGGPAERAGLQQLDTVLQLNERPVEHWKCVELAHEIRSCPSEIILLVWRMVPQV
Chain of MAGI1_3, Q96QZ7 (Q96QZ7 638-725): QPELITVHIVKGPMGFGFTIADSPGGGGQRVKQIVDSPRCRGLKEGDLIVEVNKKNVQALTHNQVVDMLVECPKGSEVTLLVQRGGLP
Chain of SDCBP_1, O00560 (O00560 111-198): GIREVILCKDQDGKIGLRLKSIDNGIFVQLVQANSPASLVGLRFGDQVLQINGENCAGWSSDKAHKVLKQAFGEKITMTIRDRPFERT
Chain of DLG5_2, Q8TDM6 (Q8TDM6 714-800): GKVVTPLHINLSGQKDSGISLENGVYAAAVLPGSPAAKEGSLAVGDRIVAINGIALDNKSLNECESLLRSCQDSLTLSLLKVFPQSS
Chain of PDZD9, Q8IXQ8 (Q8IXQ8 23-120): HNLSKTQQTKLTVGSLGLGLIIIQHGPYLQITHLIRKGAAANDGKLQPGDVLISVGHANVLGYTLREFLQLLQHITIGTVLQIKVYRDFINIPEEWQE
Chain of MAGI1_5, Q96QZ7 (Q96QZ7 986-1098): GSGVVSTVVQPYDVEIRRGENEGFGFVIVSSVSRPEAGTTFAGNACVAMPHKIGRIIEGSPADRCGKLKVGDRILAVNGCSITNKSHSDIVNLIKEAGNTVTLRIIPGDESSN

Consider QQSMSSADSTQA [SARS-Cov2-N, P0DTC9], for which the pKd entry is recorded as “below the threshold” with MAGI1_3, Q96QZ7 (setting [1]); “below the threshold” in the test with PDZD4, Q76G19 (setting [1]); “below the threshold” with RGS12, O14924; “below the threshold” in the test with PDZD7_1, Q9H5P4 (setting [1]); “below the threshold” in the test with DLG2_1, Q15700 (setting [1]); “below the threshold” in the test with SDCBP_1, O00560 (setting [1]). Moreover, the pKd result with DVL1, O14640 was “below the threshold”; with TJP3_1, O95049 (setting [1]), “below the threshold”; with PTPN13_5, Q12923 (setting [1]), “below the threshold”; with PDZD8, Q8NEN9 (setting [1]), “below the threshold”; in the test with LNX2_1, Q8N448 (setting [1]), “below the threshold”; in the test with MPP1, Q00013 (setting [1]), “below the threshold”. The negative logarithm of the Kd (pKd) result with DLG5_2, Q8TDM6 (setting [1]) is on record as “below the threshold”; in the test with RGS3, P49796-9 (setting [1]), “below the threshold”; with NHERF3_2, Q5T2W1 (setting [1]), “below the threshold”; in the test with PARD6G, Q9BYG4, “below the threshold”; with USH1C_1, Q9Y6N9 (setting [1]), “below the threshold”; with PDZD7_2, Q9H5P4 it was “below the threshold”. The negative logarithm of the Kd (pKd) result with MPDZ_7, O75970 (setting [1]) is reported as “below the threshold”; in the test with MAGI1_5, Q96QZ7 (setting [1]), “below the threshold”; in the test with PDZD9, Q8IXQ8, “below the threshold”; with GRIP1_1, Q9Y3R0 (setting [1]), “below the threshold”.
On to SSRTRRETQL [HPV16-E6_-2P, P03126], for which the negative-log Kd (pKd) result is recorded as “below the threshold” in the test with MAGI1_3, Q96QZ7 (setting [2]); “below the threshold” with PDZD4, Q76G19 (setting [2]); “below the threshold” with PDZD7_1, Q9H5P4 (setting [2]); “below the threshold” with DLG2_1, Q15700 (setting [2]); “below the threshold” in the test with SDCBP_1, O00560 (setting [2]); “below the threshold” with TJP3_1, O95049 (setting [2]). Further, the pKd entry is on record as “below the threshold” in the test with PTPN13_5, Q12923 (setting [2]); “below the threshold” with PDZD8, Q8NEN9 (setting [2]); “below the threshold” with LNX2_1, Q8N448 (setting [2]); “below the threshold” with MPP1, Q00013 (setting [2]); “below the threshold” with DLG5_2, Q8TDM6 (setting [2]); “below the threshold” with RGS3, P49796-9 (setting [2]). Also, the pKd result with NHERF3_2, Q5T2W1 (setting [2]) is “below the threshold”; in the test with USH1C_1, Q9Y6N9 (setting [2]) it was “below the threshold”; with MPDZ_7, O75970 (setting [2]), “below the threshold”; with MAGI1_5, Q96QZ7 (setting [2]), “below the threshold”; in the test with GRIP1_1, Q9Y3R0 (setting [2]), 4.61.
For RRRRSQSRESQC [HBV-HBc, P03193], the negative-log Kd (pKd) result with MAGI1_3, Q96QZ7 (setting [1]) was “below the threshold”; in the test with PDZD4, Q76G19 (setting [1]) it was “below the threshold”; in the test with RGS12, O14924 it was “below the threshold”; with PDZD7_1, Q9H5P4 (setting [1]), “below the threshold”; with DLG2_1, Q15700 (setting [1]), 4.51; with SDCBP_1, O00560 (setting [1]), “below the threshold”. Further, the pKd entry with DVL1, O14640 was “below the threshold”; in the test with TJP3_1, O95049 (setting [1]), “below the threshold”; with PTPN13_5, Q12923 (setting [1]), “below the threshold”; in the test with PDZD8, Q8NEN9 (setting [1]), “below the threshold”; with LNX2_1, Q8N448 (setting [1]) it was “below the threshold”; in the test with MPP1, Q00013 (setting [1]), “below the threshold”. For the same molecule, the negative-log Kd (pKd) result in the test with DLG5_2, Q8TDM6 (setting [1]) is on record as “below the threshold”; in the test with RGS3, P49796-9 (setting [1]), “below the threshold”; with NHERF3_2, Q5T2W1 (setting [1]), “below the threshold”; with PARD6G, Q9BYG4, “below the threshold”; in the test with USH1C_1, Q9Y6N9 (setting [1]), “below the threshold”; with PDZD7_2, Q9H5P4 it was “below the threshold”. For the same molecule, the negative-log Kd (pKd) result was “below the threshold” in the test with MPDZ_7, O75970 (setting [1]); “below the threshold” in the test with MAGI1_5, Q96QZ7 (setting [1]); “below the threshold” with PDZD9, Q8IXQ8; “below the threshold” with GRIP1_1, Q9Y3R0 (setting [1]).
Take RYEDTTLVEDTVL [WNV-NS5, Q9Q6P4]: the pKd entry is “below the threshold” with MAGI1_3, Q96QZ7 (setting [1]); “below the threshold” with PDZD4, Q76G19 (setting [1]); “below the threshold” with RGS12, O14924; “below the threshold” in the test with PDZD7_1, Q9H5P4 (setting [1]); 4.28 with DLG2_1, Q15700 (setting [1]); “below the threshold” in the test with SDCBP_1, O00560 (setting [1]). In addition, the negative-log Kd (pKd) entry in the test with DVL1, O14640 is reported as “below the threshold”; in the test with TJP3_1, O95049 (setting [1]), “below the threshold”; with PTPN13_5, Q12923 (setting [1]), “below the threshold”; with PDZD8, Q8NEN9 (setting [1]), “below the threshold”; in the test with LNX2_1, Q8N448 (setting [1]), “below the threshold”; with MPP1, Q00013 (setting [1]), “below the threshold”. The negative logarithm of the Kd (pKd) result with DLG5_2, Q8TDM6 (setting [1]) was “below the threshold”; in the test with RGS3, P49796-9 (setting [1]) it was “below the threshold”; with NHERF3_2, Q5T2W1 (setting [1]) it was “below the threshold”; in the test with PARD6G, Q9BYG4, “below the threshold”; in the test with USH1C_1, Q9Y6N9 (setting [1]) it was “below the threshold”; with PDZD7_2, Q9H5P4, “below the threshold”. Also, the pKd entry in the test with MPDZ_7, O75970 (setting [1]) was “below the threshold”; with MAGI1_5, Q96QZ7 (setting [1]), 3.84; with PDZD9, Q8IXQ8, “below the threshold”; in the test with GRIP1_1, Q9Y3R0 (setting [1]), “below the threshold”.
